Reference: paper PMC5778469

Target: T1, Cascade (type I-E effector complex) (Escherichia coli, UniProt Q46901;P76632;Q46899;Q46898;Q46897 1-502;1-160;1-363;1-224;1-199)
T1 sequence 1: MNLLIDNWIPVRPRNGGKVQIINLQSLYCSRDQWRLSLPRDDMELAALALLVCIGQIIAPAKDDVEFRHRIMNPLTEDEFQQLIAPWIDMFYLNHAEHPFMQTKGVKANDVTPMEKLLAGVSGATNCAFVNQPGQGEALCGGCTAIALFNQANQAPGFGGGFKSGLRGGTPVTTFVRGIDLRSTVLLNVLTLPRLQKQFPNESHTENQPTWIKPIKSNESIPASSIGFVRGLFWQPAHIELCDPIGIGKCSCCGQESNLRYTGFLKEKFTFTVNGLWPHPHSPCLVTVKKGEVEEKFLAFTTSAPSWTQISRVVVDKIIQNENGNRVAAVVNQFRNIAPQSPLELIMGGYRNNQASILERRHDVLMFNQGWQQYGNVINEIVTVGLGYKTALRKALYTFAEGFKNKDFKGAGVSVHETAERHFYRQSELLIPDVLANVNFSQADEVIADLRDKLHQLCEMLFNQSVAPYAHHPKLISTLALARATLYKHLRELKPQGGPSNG
T1 sequence 2: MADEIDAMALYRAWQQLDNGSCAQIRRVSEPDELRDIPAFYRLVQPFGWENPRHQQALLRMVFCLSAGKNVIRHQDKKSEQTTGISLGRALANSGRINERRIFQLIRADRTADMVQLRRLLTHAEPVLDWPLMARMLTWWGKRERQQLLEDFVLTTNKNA
T1 sequence 3: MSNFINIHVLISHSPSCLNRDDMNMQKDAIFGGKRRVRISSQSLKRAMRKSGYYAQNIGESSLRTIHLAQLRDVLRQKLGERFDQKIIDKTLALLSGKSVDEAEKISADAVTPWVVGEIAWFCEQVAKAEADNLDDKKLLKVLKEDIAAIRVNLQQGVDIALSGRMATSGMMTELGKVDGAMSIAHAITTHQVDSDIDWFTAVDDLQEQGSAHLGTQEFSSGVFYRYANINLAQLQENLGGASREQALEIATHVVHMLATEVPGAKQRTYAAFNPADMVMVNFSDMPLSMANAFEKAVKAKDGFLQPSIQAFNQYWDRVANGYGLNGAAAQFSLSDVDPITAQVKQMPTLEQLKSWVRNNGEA
T1 sequence 4: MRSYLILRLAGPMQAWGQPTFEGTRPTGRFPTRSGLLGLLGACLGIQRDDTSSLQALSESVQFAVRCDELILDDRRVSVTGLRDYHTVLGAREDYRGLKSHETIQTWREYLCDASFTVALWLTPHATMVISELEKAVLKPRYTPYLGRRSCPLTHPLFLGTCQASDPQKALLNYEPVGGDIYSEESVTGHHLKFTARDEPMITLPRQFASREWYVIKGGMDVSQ
T1 sequence 5: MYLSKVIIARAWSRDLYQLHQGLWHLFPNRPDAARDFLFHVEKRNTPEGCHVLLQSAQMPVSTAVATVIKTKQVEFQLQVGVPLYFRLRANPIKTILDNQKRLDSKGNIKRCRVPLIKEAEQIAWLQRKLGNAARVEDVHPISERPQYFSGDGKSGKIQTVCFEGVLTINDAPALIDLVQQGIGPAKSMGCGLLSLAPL
Test: EMSA

B1: sp8 target, 5-ghmC, with Cascade crRNA sp8 (dsDNA)
DNA 1: TTCATTTGATGCTCGATGAGTTTTTCTAAAAGCTGACGACCGGGTCTCCGCAAGTGGCACTTTTCCATGACCAAAATCCCTTAACGTGAGTTTTCGTT
DNA 2: AACGAAAACTCACGTTAAGGGATTTTGGTCATGGAAAAGTGCCACTTGCGGAGACCCGGTCGTCAGCTTTTAGAAAAACTCATCGAGCATCAAATGAA
modifications: glucosyl-5-hydroxymethylcytosine replacing C; exact positions not stated
**Q.** Does B1 bind?
**A.** Result: no binding
